This series concerns the molecule itself. The series can be described thus: cross-linking; 20 μg/ml purified rfBC with BS3 (5 μl of 1 mM added to 100 μl), room temperature, 0-64 min, stopped with 20 mM Tris-HCl pH 7.5; SDS-PAGE and Coomassie staining.

B1: recombinant truncated form of bovine conglutinin (rfBC), composed of the α-helical neck region and the CRD (domain or fragment, bovine (Bos taurus), UniProt P23805 217-371, looked up)
chain: EVNALKQRVTILDGHLRRFQNAFSQYKKAVLFPDGQAVGEKIFKTAGAVKSYSDAEQLCREAKGQLASPRSSAENEAVTQMVRAQEKNAYLSMNDISTEGRFTYPTGEILVYSNWADGEPNNSDEGQPENCVEIFPDGKWNDVPCSKQLLVICEF
notes: bovine conglutinin, neck region (amino acids 197-224) and C-terminal CRD (amino acids 225-351); numbers count on: the mature protein; also called recombinant fragment of conglutinin; recombinant bovine conglutinin
B1: the “stoichiometry N” value was found to be 3.

(Values after publication PMC6370948, “Complement Dependent and Independent Interaction Between Bovine Conglutinin and Mycobacterium bovis BCG: Implications in Bovine Tuberculosis” (Frontiers in Immunology, 2018).)
